{"source": "paper PMC7176140", "about": "“Thermal stability analyses of human PERIOD-2 C-terminal domain using dynamic light scattering and circular dichroism” (PLoS ONE, 2020)", "proteins": {"B1": {"name": "human PERIOD-2 C-terminal domain (recombinant hPER2c, residues 1130 to 1252) (domain or fragment, UniProt O15055 1130-1252, looked up)", "chain": "CVLQDPIWLLMADADSSVMMTYQLPSRNLEAVLKEDREKLKLLQKLQPRFTESQKQELREVHQWMQTGGLPAAIDVAECVYCENKEKGNICIPYEEDIPSLGLSEVSDTKEDENGSPLNHRIE", "notes": "C-terminal domain of human PER2 (PERIOD-2), residues 1130 to 1252; Elutes from SEC as an aggregated form, 40mer, 20mer and dimer; The authors conclude that disulfide bonds stabilise the dimer; No tag removal is described; also called human PER2c; not shown: His tag (from the vector pCold I)"}}, "biological_target": "the molecule itself", "test": "SEC; analytical Superdex 200 Increase 10/300 GL; hPER2c dimer fraction treated with 20mM DTT for 36hrs; buffer 20mM Tris-base pH7.5, 50mM NaCl, 20mM DTT; calibrated with molecular weight standards", "data": [{"protein": "B1", "values": [{"measurement": "stoichiometry N", "result": 6}]}]}
